The text below walks through data of US20230416942A1 (YALE UNIVERSITY, published 2023).

In one assay the target is T1, CD302 (human, UniProt Q8IX05 23-168, limits assumed).
T1 construct: Recombinant human protein in ELISA
T1 sequence (looked up): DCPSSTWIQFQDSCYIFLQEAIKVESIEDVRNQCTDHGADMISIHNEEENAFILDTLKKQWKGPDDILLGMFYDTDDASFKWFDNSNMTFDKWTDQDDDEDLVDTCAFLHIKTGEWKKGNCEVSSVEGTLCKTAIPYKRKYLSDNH
Description: ELISA, plate-coated recombinant human protein, nanobody-Fc. The protocol: (§1) Recombinant human protein was diluted in PBS to a final concentration of 5 μg/mL and was immobilized on 96-well flat bottom MaxiSorp plates (Thermo Fisher Scientific) and placed at 4° C. overnight. Plates were washed three times with 225 μL ELISA wash buffer (PBS with 0.05% Tween 20) and 200 μL ELISA blocking buffer (PBS with 1% Casein) was added to the well. Plates were incubated with shaking for 2 hours at room temperature. ELISA blocking buffer was removed from the wells and appropriate dilutions of recombinant nanobodies in 100 μL ELISA blocking buffer was added to each well. Plates were incubated with shaking for 2 hours at room temperature. Plates were washed 3 times with 225 μL ELISA wash buffer and 1:5000 goat anti-human IgG HRP (Millipore Sigma) in 100 μL ELISA blocking buffer was added to the wells. Plates were incubated with shaking for 1 hour at room temperature. Plates were washed 6 times with 225 μL ELISA wash buffer. 50 μL TMB substrate (BD Biosciences) was added to the wells and plates were incubated for 15 minutes in the dark at room temperature. 50 μL 1 M sulfuric acid was added to the wells and absorbance at 450 nm was measured in a Synergy HTX Multi-Mode Microplate Reader (BioTek).
In general terms: In an ELISA, binding on a coated surface is turned into a signal by an enzyme label.

The target in another assay is T2, PROCR (human, UniProt Q9UNN8 18-210).
T2 construct: Recombinant human protein in ELISA and BLI
T2 sequence (looked up): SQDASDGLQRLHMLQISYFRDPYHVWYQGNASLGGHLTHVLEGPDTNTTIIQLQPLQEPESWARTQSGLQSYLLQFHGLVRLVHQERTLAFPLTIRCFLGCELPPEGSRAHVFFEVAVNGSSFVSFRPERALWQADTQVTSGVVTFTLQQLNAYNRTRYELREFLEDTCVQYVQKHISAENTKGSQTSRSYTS
Described as above. Here is the method: as §1

A further assay addresses REAP Off-Targets. In words: REAP, nanobody-Fc on yeast-displayed human antigen library.
The target in assay [1] is T3, TNFRSF17 (recombinant human protein) (human, UniProt Q02223 1-54).
T3 construct: Recombinant human protein immobilized at 5 ug/mL for ELISA
T3 sequence (looked up): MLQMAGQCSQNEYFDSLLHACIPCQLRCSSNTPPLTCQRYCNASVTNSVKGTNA
In words: ELISA, recombinant human protein coated, nanobody-Fc titrated, anti-human IgG HRP. Here is the method:
as §1

The next assay has as its target T4, CD3E (human, UniProt P07766 23-126).
T4 construct: Recombinant human protein in ELISA
In words: ELISA, plate-coated recombinant human protein, nanobody-Fc. The protocol: as §1

T4 sequence (P07766 23-126 limits assumed): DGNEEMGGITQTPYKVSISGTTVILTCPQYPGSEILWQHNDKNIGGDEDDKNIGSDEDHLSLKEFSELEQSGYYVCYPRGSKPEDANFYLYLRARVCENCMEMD

B1: CD302_Nb32 (Fc fusion)
chain: QVQLQESGGGLVQAGGSLRLSCAASGTIFPDSSMGWYRQAPGKEREFVAGITTGANTYYADSVKGRFTISRDNAKNTVYLQMNSLKPEDTAVYYCAAYHVDRAVFRYWGQGTQVTVSS
notes: Nanobody expressed and tested as Fc fusion (human IgG1); not shown: human IgG1 Fc (vector pCER243)
A word on the EC50: it is the concentration giving half of the maximal effect. As to B1, the EC50 in the assay with CD302 is 0.49 nM.

B2: PROCR_Nb89 (Fc fusion)
chain: QVQLQESGGGLVQAGGSLRLSCAASGTIFRDDNMGWYRQAPGKEREFVAAIGYGSTTNYADSVKGRFTISRDNAKNTVYLQMNSLKPEDTAVYYCAVRNTYWNLLQYWGQGTQVTVSS
notes: as for B1
Take B2: the EC50 with PROCR was found to be 0.565 nM.

B3: PROCR_Nb83 (Fc fusion)
chain: QVQLQESGGGLVQAGGSLRLSCAASGNISPTRFMGWYRQAPGKEREFVAAIDLGTTTNYADSVKGRFTISRDNAKNTVYLQMNSLKPEDTAVYYCAADWNGPWSFWYWGQGTQVTVSS
notes: as for B1
With B3, in the assay with PROCR, the EC50 stood at 1.27 nM.

B4: PROCR_Nb85 (Fc fusion)
chain: QVQLQESGGGLVQAGGSLRLSCAASGNISVLVYMGWYRQAPGKERELVAAITTGTSTYYADSVKGRFTISRDNAKNTVYLQMNSLKPEDTAVYYCAADYYGPWYHQYWGQGTQVTVSS
notes: as for B1
Consider B4, for which, in the assay with PROCR, the EC50 is 0.352 nM.

B5: TNFRSF17_Nb2.18 (Fc fusion)
chain: QVQLQESGGGLVQAGGSLRLSCAASGNIFRGWYMGWYRQAPGKEREFVATIASGGSTYYADSVKGRFTISRDNAKNTVYLQMNSLKPEDTAVYYCAVWDWEPGDYAYWGQGTQVTVSS
notes: Nanobody expressed as an Fc fusion protein (fused with human IgG1) in Expi293 cells; not shown: human IgG1 Fc; nanobodies expressed as Fc fusion from vector pCER243
B5 gave an REAP Off-Targets (number) in the assay with REAP Off-Targets of 1 off-targets. Further, the EC50 in assay [1] is 2.82 nM.

B6: TNFRSF17_Nb2.21 (Fc fusion)
chain: QVQLQESGGGLVQAGGSLRLSCAASGTIFQYDYMGWYRQAPGKEREFVAAIAYGGNTNYADSVKGRFTISRDNAKNTVYLQMNSLKPEDTAVYYCAAWSWRRSRAYWGQGTQVTVSS
notes: as for B5
The molecule B6 had an REAP Off-Targets (number) with REAP Off-Targets of 5 off-targets. Further, in assay [1], the EC50 turned out to be 4.75 nM.

B7: TNFRSF17_Nb2.19 (Fc fusion)
chain: QVQLQESGGGLVQAGGSLRLSCAASGTISHPTYMGWYRQAPGKEREFVAGISDGTNTYYADSVKGRFTISRDNAKNTVYLQMNSLKPEDTAVYYCAAITSWDYGYGYWGQGTQVTVSS
notes: as for B5
In the assay with REAP Off-Targets, B7 came in with an REAP Off-Targets (number) of 3 off-targets. In addition, the concentration giving a half-maximal response (EC50) in assay [1] worked out at 2.84 nM.

B8: TNFRSF17_Nb2.20 (Fc fusion)
chain: QVQLQESGGGLVQAGGSLRLSCAASGTIFSDYMGWYRQAPGKEREFVATIAVGSITYYADSVKGRFTISRDNAKNTVYLQMNSLKPEDTAVYYCAVWDASWADYAYWGQGTQVTVSS
notes: as for B5
As to B8, the EC50 in assay [1] amounted to 1.02 nM.

B9: CD3E_Nb2.77 (Fc fusion)
chain: QVQLQESGGGLVQAGGSLRLSCAASGSISPVAVMGWYRQAPGKEREFVAAINYGANTYYADSVKGRFTISRDNAKNTVYLQMNSLKPEDTAVYYCAAATYAPYQRSGKLVYWGQGTQVTVSS
notes: as for B1
Turning to B9, the half-maximal effective concentration (EC50) with CD3E is 0.67 nM.

B10: PROCR_Nb90 (Fc fusion)
chain: QVQLQESGGGLVQAGGSLRLSCAASGTISGGYNMGWYRQAPGKEREFVATIGDGSSTYYADSVKGRFTISRDNAKNTVYLQMNSLKPEDTAVYYCAAFNSAQYWYESPFRYWGQGTQVTVSS
notes: as for B1
Consider B10, for which the 50% effective concentration (EC50) with PROCR amounted to 1.74 nM.

B11: CD302_Nb30 (Fc fusion)
chain: QVQLQESGGGLVQAGGSLRLSCAASGSISLATGMGWYRQAPGKEREFVAGISVGTSTYYADSVKGRFTISRDNAKNTVYLQMNSLKPEDTAVYYCAAIAWHPSGARSYLRYWGQGTQVTVSS
notes: as for B1
Take B11: the EC50 with CD302 is 2.21 nM.

B12: CD3E_Nb2.74 (Fc fusion)
chain: QVQLQESGGGLVQAGGSLRLSCAASGTIFYASVMGWYRQAPGKEREFVAGITPGGSTNYADSVKGRFTISRDNAKNTVYLQMNSLKPEDTAVYYCAVYYRYSEGRIGGHAYWGQGTQVTVSS
notes: as for B1
Consider B12, for which, in the assay with CD3E, the half-maximal effective concentration (EC50) was 1.2 nM.

B13: CD3E_Nb2.79 (Fc fusion)
chain: QVQLQESGGGLVQAGGSLRLSCAASGTISPWRVMGWYRQAPGKEREFVAGITPGTTTYYADSVKGRFTISRDNAKNTVYLQMNSLKPEDTAVYYCAVSAGASTPARYRLVYWGQGTQVTVSS
notes: as for B1
B13: the half-maximal effective concentration (EC50) in the assay with CD3E was found to be 0.579 nM.

B14: CD302_Nb26 (Fc fusion)
chain: QVQLQESGGGLVQAGGSLRLSCAASGNISFIGAMGWYRQAPGKEREFVAGINVGTNTYYADSVKGRFTISRDNAKNTVYLQMNSLKPEDTAVYYCAAYVFVSRIDLRYLVYWGQGTQVTVSS
notes: as for B1
Turning to B14, the EC50 with CD302 turned out to be 8.5 nM.

B15: CD302_Nb31 (Fc fusion)
chain: QVQLQESGGGLVQAGGSLRLSCAASGTIFKSAGMGWYRQAPGKEREFVAGIAPGAITYYADSVKGRFTISRDNAKNTVYLQMNSLKPEDTAVYYCAALVADGRPYRYWGQGTQVTVSS
notes: as for B1
For B15, the 50% effective concentration (EC50) in the assay with CD302 was determined as 1.26 nM.

B16: TNFRSF17_Nb2.23 (Fc fusion)
chain: QVQLQESGGGLVQAGGSLRLSCAASGYISRYDYMGWYRQAPGKERELVAAINSGASTYYADSVKGRFTISRDNAKNTVYLQMNSLKPEDTAVYYCAVRSWGLDDYAYWGQGTQVTVSS
notes: as for B5
B16 displayed an REAP Off-Targets (number) in the assay with REAP Off-Targets of 2 off-targets. The EC50 in assay [1] came to 7.57 nM.

B17: CD3E_Nb2.80 (Fc fusion)
chain: QVQLQESGGGLVQAGGSLRLSCAASGNISRRYVMGWYRQAPGKEREFVAGISGGSSTYYADSVKGRFTISRDNAKNTVYLQMNSLKPEDTAVYYCAVLISGNTPNAISHYYWGQGTQVTVSS
notes: as for B1
As for B17, the EC50 with CD3E turned out to be 17.9 nM.

B18: CD302_Nb35 (Fc fusion)
chain: QVQLQESGGGLVQAGGSLRLSCAASGTISRVFVMGWYRQAPGKERELVAGIGGGTSTYYADSVKGRFTISRDNAKNTVYLQMNSLKPEDTAVYYCAAILSDRVLFRYWGQGTQVTVSS
notes: as for B1
B18: the EC50 with CD302 was 0.654 nM.

B19: CD302_Nb33 (Fc fusion)
chain: QVQLQESGGGLVQAGGSLRLSCAASGTISIIFAMGWYRQAPGKEREFVAGIGRGTTTYYADSVKGRFTISRDNAKNTVYLQMNSLKPEDTAVYYCAAHVFYDNVVQRHAYWGQGTQVTVSS
notes: as for B1
Regarding B19, the EC50 in the assay with CD302 worked out at 2.26 nM.

B20: CD302_Nb28 (Fc fusion)
chain: QVQLQESGGGLVQAGGSLRLSCAASGSISGVSGMGWYRQAPGKEREFVAGITTGTSTYYADSVKGRFTISRDNAKNTVYLQMNSLKPEDTAVYYCAAYANYVPSSRLYLRYWGQGTQVTVSS
notes: as for B1
Consider B20, for which the EC50 in the assay with CD302 was 0.684 nM.

B21: CD3E_Nb2.76 (Fc fusion)
chain: QVQLQESGGGLVQAGGSLRLSCAASGNIFGNVVMGWYRQAPGKEREFVAGINNGGSTNYADSVKGRFTISRDNAKNTVYLQMNSLKPEDTAVYYCAVYYYYLTYHLYWGQGTQVTVSS
notes: as for B1
Consider B21, for which the EC50 with CD3E is 16.1 nM.

B22: CD3E_Nb2.73 (Fc fusion)
chain: QVQLQESGGGLVQAGGSLRLSCAASGNISDITVMGWYRQAPGKEREFVAGINYGGSTNYADSVKGRFTISRDNAKNTVYLQMNSLKPEDTAVYYCAARYRYRYSAREFHDYWGQGTQVTVSS
notes: as for B1
For B22, the EC50 with CD3E was 0.735 nM.
